Experimental data taken from paper PMC9251544.

Target: 3×HA-xtMc1r (Xenopus tropicalis melanocortin 1 receptor) (Xenopus tropicalis)

Substance | EC50 of α-MSH in the cAMP luciferase reporter assay (pCRE-luc, HEK293T), xtMc1r:xtMrap1 plasmid ratios 1:0 to 1:6; EC50 from 6.906×10^−10 M (1:6) to 2.806 × 10^−9 M (1:0) | EC50 of α-MSH in the cAMP luciferase reporter assay (pCRE-luc, HEK293T), xtMc1r:xtMrap2 plasmid ratios 1:0 to 1:6; EC50 from 7.550 × 10^−10 M (1:3) to 2.036 × 10^−9 M (1:0) | EC50 of ACTH in the cAMP luciferase reporter assay (pCRE-luc, HEK293T), xtMc1r:xtMrap1 plasmid ratios 1:0 to 1:6; EC50 from 1.171 × 10^−9 M (1:3) to 7.006 × 10^−9 M (1:0) | EC50 of ACTH in the cAMP luciferase reporter assay (pCRE-luc, HEK293T), xtMc1r:xtMrap2 plasmid ratios 1:0 to 1:6; EC50 from 1.513 × 10^−9 M (1:6) to 7.150 × 10^−9 M (1:0)
alpha melanocyte-stimulating hormone (α-MSH) peptide | 2.81e-09 M | 2.04e-09 M | – | –
ACTH peptide | – | – | 7.01e-09 M | 7.15e-09 M
